Measured values taken from publication PMC7376022, “ARHGAP10, which encodes Rho GTPase-activating protein 10, is a novel gene for schizophrenia risk” (Translational Psychiatry, 2020).

Biological target: T1, GST-RhoA (p.Q63L) (UniProt P61586 1-193, p.Q63L)
T1 construct: RhoA, small GTPase, constitutively active mutant Q63L; also called GST-RhoA (Q63L); constitutively active RhoA; source: expressed in HEK293 cells
Test: pull-down; GST binding assay; GST-RhoA proteins as bait, GFP-tagged ARHGAP10 as prey; input and bound proteins on immunoblots, densitometry with Odyssey Clx; three independent experiments

T1 sequence (P61586 whole entry Q63L): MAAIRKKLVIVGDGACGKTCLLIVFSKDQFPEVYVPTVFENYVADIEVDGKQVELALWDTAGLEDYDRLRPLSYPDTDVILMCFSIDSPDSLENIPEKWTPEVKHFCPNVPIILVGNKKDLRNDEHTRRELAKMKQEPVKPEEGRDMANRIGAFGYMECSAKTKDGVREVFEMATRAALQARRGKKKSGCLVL

B1: GFP-tagged human ARHGAP10 (p.S490P) mutant (natural protein, UniProt A1A4S6 1-786, looked up)
chain: MGLQPLEFSDCYLDSPWFRERIRAHEAELERTNKFIKELIKDGKNLIAATKSLSVAQRKFAHSLRDFKFEFIGDAVTDDERCIDASLREFSNFLKNLEEQREIMALSVTETLIKPLEKFRKEQLGAVKEEKKKFDKETEKNYSLIDKHLNLSAKKKDSHLQEADIQVEQNRQHFYELSLEYVCKLQEIQERKKFEFVEPMLSFFQGMFTFYHQGHELAKDFNHYKMELQINIQNTRNRFEGTRSEVEELMNKIRQNPKDHKRASQFTAEGYLYVQEKRPAPFGSSWVKHYCMYRKAAKKFNMIPFEHRSGGKLGDGEVFFLKECTKRHTDSIDRRFCFDIEAADRPGVSLTMQAFSEEERKQWLEALGGKEALSHSFNTAIIPRPEGNAQLDKMGFTIIRKCISAVETRGINDQGLYRVVGVSSKVQRLLSMLMDVKTCNEVDLENSADWEVKTITSALKQYLRSLPEPLMTYELHGDFIVPAKSGSPEPRVNAIHFLVHKLPEKNKEMLDILVKHLTNVSNHSKQNLMTVANLGVVFGPTLMRPQEETVAALMDLKFQNIVVEILIENHEKIFRTPPDTTFPEPTCLSASPPNAPPRQSKRQGQRTKRPVAVYNLCLELEDGDNPYPSKEDTPTSSLDSLSSPSPVTTAVPGPPGPDKNHLLADGGSFGDWASTIPGQTRSSMVQWLNPQSPTTTSSNSAVTPLSPGSSPFPFSPPATVADKPPESIRSRKARAVYPCEAEHSSELSFEIGAIFEDVQTSREPGWLEGTLNGKRGLIPQNYVKLL
notes: also called ARHGAP10 (p.S490P)-GFP; source: expressed in HEK293 cells
band intensity percentage relative to the corresponding bait: 15.8%
